Laboratory results published in US7410775B2, “Method for making recombinant peptides or proteins using soluble endoproteases” (Bio-Ker S.R.L., priority 2000, dated 2008).
Values belong to the molecule of their own block, whether it stands above or below them. Residues, ends and D or L forms follow the SMILES beside them. *: point of attachment. pNA = O=[N+]([O-])c1ccc(N*)cc1; Cbz = O=C(OCc1ccccc1)*

Experiments:
[1] = biological target: T1, Kluyveromyces lactis Kex1 protease, soluble secreted variant ss-Kex1-C600 (truncated at amino acid 600; parent Kex1 SEQ ID NO: 3) (Kluyveromyces lactis, UniProt P09231); assay: Kinetic constants of ss-Kex1-C600 (single initial substrate concentration, progress curve, Michaelis-Menten fit); type: biochemical
T1 sequence (P09231 103-600): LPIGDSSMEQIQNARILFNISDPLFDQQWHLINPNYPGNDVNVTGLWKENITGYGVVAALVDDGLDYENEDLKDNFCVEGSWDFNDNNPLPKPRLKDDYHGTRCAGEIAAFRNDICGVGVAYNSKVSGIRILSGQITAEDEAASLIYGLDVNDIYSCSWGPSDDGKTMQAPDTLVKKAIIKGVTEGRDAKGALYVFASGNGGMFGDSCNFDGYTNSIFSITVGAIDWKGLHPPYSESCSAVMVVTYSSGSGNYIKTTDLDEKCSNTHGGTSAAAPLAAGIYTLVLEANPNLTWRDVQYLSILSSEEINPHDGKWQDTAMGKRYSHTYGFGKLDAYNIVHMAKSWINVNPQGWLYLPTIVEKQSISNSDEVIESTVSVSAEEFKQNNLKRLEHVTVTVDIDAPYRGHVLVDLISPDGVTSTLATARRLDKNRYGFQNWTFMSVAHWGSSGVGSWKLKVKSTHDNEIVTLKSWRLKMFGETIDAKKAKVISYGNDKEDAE
Experimental: (§1) The enzyme activity was determined by a calorimetric test which exploits the capacity of the enzyme to hydrolyse the substrate Z-L-tyrosine-L-lysine-L-arginine-p-nitroanilide (Z-Y-K-R-pNA). The incubation mixture comprises 0.1 mM Z-Y-K-R-pNA in 0.2 M Hepes, pH 7.0 and 1 mM CaCl2, in a total volume of 1.5 ml at 37° C. The reaction is monitored at 405 nm, a wavelength at which the maximum decrease in the molar extinction coefficient (As), equal to 10.9 mM^−1 cm^−1, occurs. An enzyme unit is defined as being the quantity of enzyme that catalyses the transformation of 1 μmole of substrate per minute under the conditions described above. […]
(§2) The kinetic constants were determined by a simplified procedure which requires that measurements be carried out at a single initial concentration of substrate and until the substrate is exhausted. The method provides that, at various times, the average values of residual concentration and rate be determined and is applicable in those cases in which the enzyme catalyses an entirely irreversible reaction under the operating conditions, and is not subject to inhibition by product (Segel, I. H. (1975) Enzyme Kinetics, Wiley, New York). […]

[2] = biological target: T2, Saccharomyces cerevisiae Kex2 protease, soluble secreted form ss-Kex2-C613 (parent Kex2 SEQ ID NO: 4) (Saccharomyces cerevisiae, UniProt P13134); assay: Kinetic constants of ss-Kex2-C613 (single initial substrate concentration, progress curve, Michaelis-Menten fit); type: biochemical
T2 construct: pro-region cut at Lys108-Arg109; from yeast
T2 sequence (P13134 1-613): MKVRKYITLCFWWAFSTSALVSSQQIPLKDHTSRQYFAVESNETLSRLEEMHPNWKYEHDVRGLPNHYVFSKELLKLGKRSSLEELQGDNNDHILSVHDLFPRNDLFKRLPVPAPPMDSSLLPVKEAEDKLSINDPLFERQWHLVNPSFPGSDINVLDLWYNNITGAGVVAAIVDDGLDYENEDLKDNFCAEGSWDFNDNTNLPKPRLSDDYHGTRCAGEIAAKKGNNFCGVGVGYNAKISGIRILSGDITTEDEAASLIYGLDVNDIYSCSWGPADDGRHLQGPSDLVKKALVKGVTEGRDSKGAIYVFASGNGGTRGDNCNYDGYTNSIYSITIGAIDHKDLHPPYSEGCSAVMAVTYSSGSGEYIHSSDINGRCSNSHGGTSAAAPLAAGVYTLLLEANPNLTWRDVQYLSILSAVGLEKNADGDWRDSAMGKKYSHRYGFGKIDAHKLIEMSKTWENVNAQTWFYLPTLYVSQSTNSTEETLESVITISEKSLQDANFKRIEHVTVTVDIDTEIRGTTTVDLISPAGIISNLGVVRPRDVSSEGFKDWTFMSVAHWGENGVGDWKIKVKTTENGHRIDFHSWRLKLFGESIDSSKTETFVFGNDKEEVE
Experimental: as §1, §2

[3] = substrate: N=C(N)NCCC[C@H](NC(=O)[C@H](CCCCN)NC(=O)[C@H](Cc1ccc(O)cc1)NC(=O)OCc1ccccc1)C(=O)Nc1ccc([N+](=O)[O-])cc1; assay: Kinetic constants of ss-Kex1-C600 (single initial substrate concentration, progress curve, Michaelis-Menten fit); type: biochemical, Kluyveromyces lactis; conditions: other: ss-Kex1-C600; pH 7.0
Experimental: The enzyme activity was determined by a calorimetric test which exploits the capacity of the enzyme to hydrolyse the substrate Z-L-tyrosine-L-lysine-L-arginine-p-nitroanilide (Z-Y-K-R-pNA). The incubation mixture comprises 0.1 mM Z-Y-K-R-pNA in 0.2 M Hepes, pH 7.0 and 1 mM CaCl2, in a total volume of 1.5 ml at 37° C. The reaction is monitored at 405 nm, a wavelength at which the maximum decrease in the molar extinction coefficient (As), equal to 10.9 mM^−1 cm^−1, occurs. An enzyme unit is defined as being the quantity of enzyme that catalyses the transformation of 1 μmole of substrate per minute under the conditions described above. Unless expressly indicated otherwise, the data presented in Table 2 refer to the activity secreted in the growth medium by derivatives of the W303 strain which was grown in a flask at 30° C., with agitation (220 rpm), in 1040 medium-2% galactose (except for strains NP255 and NP265 in which the carbon source added to the growth medium was 2% glucose). Various samples were taken along the growth curve for each strain. […] The invention is therefore not limited by the type of promoter used, as long as the levels of secretion of the endoprotease of the invention are satisfactory.
The kinetic constants were determined by a simplified procedure which requires that measurements be carried out at a single initial concentration of substrate and until the substrate is exhausted. The method provides that, at various times, the average values of residual concentration and rate be determined and is applicable in those cases in which the enzyme catalyses an entirely irreversible reaction under the operating conditions, and is not subject to inhibition by product (Segel, I. H. (1975) Enzyme Kinetics, Wiley, New York). The results so obtained were processed using the Grafit programme, which permitted the interpolation of the Michaelis-Menten profile and the determination of the values of Km and Vmax, presented in Table 3. kcat and the kcat/Km ratio were then obtained from those values and from the enzyme concentration.

[4] = substrate: N=C(N)NCCC[C@H](NC(=O)[C@H](CCCCN)NC(=O)[C@H](Cc1ccc(O)cc1)NC(=O)OCc1ccccc1)C(=O)Nc1ccc([N+](=O)[O-])cc1; assay: Kinetic constants of ss-Kex2-C613 (single initial substrate concentration, progress curve, Michaelis-Menten fit); type: biochemical, Saccharomyces cerevisiae; conditions: other: ss-Kex2-C613; pH 7.0
Experimental: as §1, §2

Vmax [1]: 1720 (ΔA min^−1) × 10^3
Vmax [2]: 1029 (ΔA min^−1) × 10^3
Molecule: N=C(N)NCCC[C@H](NC(=O)[C@H](CCCCN)NC(=O)[C@H](Cc1ccc(O)cc1)NC(=O)OCc1ccccc1)C(=O)Nc1ccc([N+](=O)[O-])cc1 [Z-Y-K-R-pNA, Z-L-tyrosine-L-lysine-L-arginine-p-nitroanilide] (Cbz-Tyr-Lys-Arg-pNA)

B1: Kluyveromyces lactis Kex1 protease, soluble secreted variant ss-Kex1-C600 (truncated at amino acid 600; parent Kex1 SEQ ID NO: 3) (Kluyveromyces lactis NRRL … (protein)
chain: LPIGDSSMEQIQNARILFNISDPLFDQQWHLINPNYPGNDVNVTGLWKENITGYGVVAALVDDGLDYENEDLKDNFCVEGSWDFNDNNPLPKPRLKDDYHGTRCAGEIAAFRNDICGVGVAYNSKVSGIRILSGQITAEDEAASLIYGLDVNDIYSCSWGPSDDGKTMQAPDTLVKKAIIKGVTEGRDAKGALYVFASGNGGMFGDSCNFDGYTNSIFSITVGAIDWKGLHPPYSESCSAVMVVTYSSGSGNYIKTTDLDEKCSNTHGGTSAAAPLAAGIYTLVLEANPNLTWRDVQYLSILSSEEINPHDGKWQDTAMGKRYSHTYGFGKLDAYNIVHMAKSWINVNPQGWLYLPTIVEKQSISNSDEVIESTVSVSAEEFKQNNLKRLEHVTVTVDIDAPYRGHVLVDLISPDGVTSTLATARRLDKNRYGFQNWTFMSVAHWGSSGVGSWKLKVKSTHDNEIVTLKSWRLKMFGETIDAKKAKVISYGNDKEDAE
Km [3]: 61.4 µM
kcat [3]: 3070 s⁻¹
kcat/Km [3]: 5e+07 M⁻¹ s⁻¹

B2: Saccharomyces cerevisiae Kex2 protease, soluble secreted form ss-Kex2-C613 (parent Kex2 SEQ ID NO: 4) (Saccharomyces cerevisiae S288C) (protein)
chain: MKVRKYITLCFWWAFSTSALVSSQQIPLKDHTSRQYFAVESNETLSRLEEMHPNWKYEHDVRGLPNHYVFSKELLKLGKRSSLEELQGDNNDHILSVHDLFPRNDLFKRLPVPAPPMDSSLLPVKEAEDKLSINDPLFERQWHLVNPSFPGSDINVLDLWYNNITGAGVVAAIVDDGLDYENEDLKDNFCAEGSWDFNDNTNLPKPRLSDDYHGTRCAGEIAAKKGNNFCGVGVGYNAKISGIRILSGDITTEDEAASLIYGLDVNDIYSCSWGPADDGRHLQGPSDLVKKALVKGVTEGRDSKGAIYVFASGNGGTRGDNCNYDGYTNSIYSITIGAIDHKDLHPPYSEGCSAVMAVTYSSGSGEYIHSSDINGRCSNSHGGTSAAAPLAAGVYTLLLEANPNLTWRDVQYLSILSAVGLEKNADGDWRDSAMGKKYSHRYGFGKIDAHKLIEMSKTWENVNAQTWFYLPTLYVSQSTNSTEETLESVITISEKSLQDANFKRIEHVTVTVDIDTEIRGTTTVDLISPAGIISNLGVVRPRDVSSEGFKDWTFMSVAHWGENGVGDWKIKVKTTENGHRIDFHSWRLKLFGESIDSSKTETFVFGNDKEEVE
notes: pro-region cut at Lys108-Arg109; from yeast
Km [4]: 56.8 µM
